# Test system: Saccharomyces cerevisiae
# Assay: transcriptional activation domain activity (GFP:mCherry ratio, weighted mean of sorted bins, harmonized to initial dataset scale) (arbitrary fluorescence ratio units); higher = stronger transcriptional activation
# Settings: beta-estradiol 1 µM; induction time 4 h
# Summary of the method: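 Activation activity, the read-weighted mean of bin median fluorescence averaged across barcodes, was linearly mapped onto the scale of the initial dataset. It was measured for barcoded protein tiles fused to an estradiol-inducible synthetic transcription factor at URA3 in GFP-reporter yeast diploids. Cultures diluted 1:5 into SC with 1 uM beta-estradiol were held 4 hours at 30 °C, sorted into 8 bins by GFP:mCherry ratio, and barcode-sequenced, and tiles under 50 reads were discarded.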
row,Sequence,transcriptional activation domain activity
1,GFVGENSASASVVEVLLRTGGFSTRSLRRRLLETFQLVLEVTHSLAFIKPGGK,53300
2,GFVLPLFFNSLCPMIPIGFSFVFHFFSHFSFLPIVCFPFPFHLFDTLGSFFFR,33100
3,GFVVQQLQKLFLTCIALKLVQRVNSLNKLFKTAVGSLPVILSLLGLWIILFLF,47200
4,GGAAAKESESKSSASTSKASISKGKDEQGAGASGGNKKGGGGKATTKRGRKKG,29400
5,GGAAGARKGAKRPKRAVGGAAAAAGGKKSADSDDEKPKEKSAPSGGGSKVGGI,36600
6,GGAAKPAFGAAPSGGLFGSTANTTANTGGFGGGFGSGTTAASTSSPFGGGAAS,27700
7,GGAAPAAAPADNRPPEERYAEQLRQLNDMGFFDFDRNVAALRRSGGSVQGAIE,44000
8,GGAARVDREEMPGVTLCLRHLSACVLGVFLVESSKKVLVVVRTEPITLSKSFG,45200
9,GGADTKQGAKIACLECRTAKIKCSAPTDGVVPCRRCVRHGRECIFEKHRRGRK,42200
10,GGAGKGKGAAAAAAKAAGAARDVEDIVAREPEPHHKGAGGAGKGKGAAAAAAK,41900
11,GGALSHHEIRVHWAPSWVSSRAPCSTRGLGCKPGVSLIETVVRAVVLMSCARK,46200
12,GGDSVVDILFSQTSATEFVTVGGTGNVYHWDMEYSFSRNDDDNEDEVRVAAPE,38300
13,GGEDALGRAAEEEGVRSGGLSSEQQDREEARGEARDRQHRVACFGGRRECAGG,48500
14,GGEDIAAAENTGGSPAAGSGRGRGRSSRGGRGRGSGRGRGRGGSNAAGGSAAG,16500
15,GGEEEEGAPKRPAKKARPSVESEAEVKEEEEEEDAVKPKRGRRTAKSASSSRK,27300
16,GGEEGRRKEREAGGRGTQKGEEEGDEVGRGGRGRRQREGRERGEARAGAGRRR,30800
17,GGEGALTVAASARERERERERDREEREKREKRERARESQAVKRKKRPAEKEPP,38000
18,GGEGEKKKREGKEGREKRGGRRKKGRGKKGRGREGRKKGKRKREGKGKKGEKR,24600
19,GGEGGAARNGRKRAENARRGREGGKERGPGNKTVAGQEAGGRGHREDRGGSDR,40500
20,GGEGRGGHPAACRGGCFARYPFTPSFLLYFLLLFFYRGVHVPISFFFLFLFLF,46500
21,GGERREREEGTERREKEEAGRRRRESGRGQEGKKRGEGGGGRKKRGRDGGGPG,38500

row,Sequence,transcriptional activation domain activity
1,GGETAAPPAEPAPAPAAEPEEEEEPVKGKGKGGKGGKKGGKGGKKAKKEEVPA,23600
2,GGETEGESPEAPVPGGETPSEGGETETPSEGGETEGESPETPVPGGETPSEGG,16800
3,GGGEAQKPRPAAERKKQEANGHAHHDHSQGNHHGHRHKHAKDAKKAEDGGARK,32500
4,GGGGAGEEDAKGKARADEDVRESSRAKSTSKRKTSAAASGSESDSASSSSSYS,14900
5,GGGGDNAAAGEKNSSSSSNSHHNSSKKSGRGGRSNSESRNEGGGRSTAGGGSA,31800
6,GGGGGGAEGARGANESGGRGDGRRRGAGARARARQGGRGRGGGGRGGTKGGRG,9940
7,GGGGGGGGSYGAFGGGGKTCYTCGGVGHLSRDCVQGSKCYNCSGIVRDVILVE,67800
8,GGGGGSSRKRARGGESEDEAAGARANGVGNGPSNGKGKEKGKEVVDDGVAVGS,55900
9,GGGGGVGGEKGEEGGGEEEEDEEEEEEEGEEDEEEEGGGAAAKEKGKGKGKGK,8640
10,GGGGQKRKAGAAQDDASSQQPKKKKAKKGGKGKGAQQQKQQGGASGSGGGQAS,31500
11,GGGKGHEDGYMREVRVVPAYLLVEIINRKENRKERVGAKLLLTRACVLGLYTL,45400
12,GGGNRGRWPGDDSSDSSSSENERRGRRERRRRHRRRSASPDARRSGKGDAPKQ,< 6570
13,GGGSAVWIFLYCVWYYFVKLQITGFLSSLLFFSYSLMACCVYGLLTGMVGFLT,60400
14,GGGSEERGGRGRQEGGKDREAGGRERGSAGEREETEGGTGAEGGGGGERRQGE,32300
15,GGGTAARSAGSSSREEERGQRRHGRGERGREGADAGRKGGREGTREALAGKGR,30800
16,GGGTDPRHLHVVSVMLVKGVPFYGYHIGYSYFLKVSLVNPSRMFVALEQLRKP,30000
17,GGIIMAFFLRLNFGLWGICIALFGLRGQAELPLLIHVQRHILSIYVIIPRWFW,56300
18,GGISKGENAHNFQNDTKKNMSTSNLFPFSFSNTDLTALFTHPEGPNCTNTNNG,56600
19,GGKAKGRKGKEKEKEKEVADKPAARKCAAPKAAPKKATVKKAAKKVKETGKGS,28700
20,GGKEEGGEETGERATKQQKTTPQESNKGSQGGNNNQRQGGGRNRHGRNRNGGG,30400
21,GGKKGGRTKGATARDKSPEGRTDRPASKGKSLKTGGEDGKGKKSGERAGKLAH,60400

row,Sequence,transcriptional activation domain activity
1,GGKKKKAAAAVLETETEGEGEKENKSAEKGKAGSNGGGKKGKGKKGANGVANG,23400
2,GGKRKGEQGHGAGQRGKGDGQGRGGRGRGRGEGGEEKGRRAERKEERGRRGRS,16300
3,GGLCAANFVAILITASVNIWTLLGNVYYSPLVNRCVCVARPEWMWTIWIFPLL,46700
4,GGLFGAKPATTGGLFGSTPAAQPAQTGGLFGGGGTTGGFGASTTGGAFGSTPA,48500
5,GGLSELKDSLDDSQVQYAYARVEYANDSESTRVKFVLVIWIGESTKVMRKARV,46700
6,GGLWNLVMWHWMLSFLAGICCFFLQILTYIWLQESSVIRISTSCLAGFWILPL,91700
7,GGNIHIRSLFIIAMVFLFFGLVLLTIGFFSDFRKSWFVWRLRTCWLWANGTRF,57800
8,GGPARRMKPGAPDARREEGGKKKRGATNDTGAAKEKAPAKGRKGKKKPAEESE,44500
9,GGRGGGRGGRGGGGRGGRDRDGGRGGGRGRGGRGGGEGEEVVGTEGKDGGAEA,18300
10,GGRKRRKEREQQRERPDEEQSRPGSRDDEEGEKEGRGKGTKARKGAGGAAGKG,27600
11,GGSGASPPPPDNRPPEERYAEQLRQLNDMGFYDFDRNVAALRRSGGSVQGAIE,29100
12,GGSKRDREDSRKGGKTSSRGGRLTEDGPSSSHTKKPRKGKKGEEAKEGGEKSS,25100
13,GGTASPPPPPDNRPPEERYAEQLRQLNDMGFFDFDRNVEALRRSGGSVQGAIE,28300
14,GGTRRSSNQFGKRNTVALHPVINDFVGTVDSDSLVTAYKPFLASDFIGRGYDD,28300
15,GGVAAREAKRKGRGRGEEEGRGAVCGGRGARGGARGRGGGGGRTGRAGGARAL,23500
16,GGVNWESTRDREAVVIRILSPIVEADGSVYICIWIHPVGIIIVHLIVELKLVH,42300
17,GGVSRIRQGERQGAGAGGAEGKSRKGAAAGRGKGGEQGGERGGSREGKGGGAG,37500
18,GHDGHGKGHGHGKGGHGRYARGEEAELEERGYGHGHGGHGKGGHGRYAREEEA,21100
19,GHDGPQQQQQRKKPAAAAAAGKGKEKGKGKGKGQVVVVASKPAKKAASAAAAA,28700
20,GHERERGSGREKRGGERDATGRRERDRESGRESRESRESSRRERGSRDEGRRD,39800
21,GHFVRVGTTFFTMYAVNIFLSYARYIAAHFRISVIVISRLMLNLRNPVTFEST,60400

row,Sequence,transcriptional activation domain activity
1,GHGKLGYFTGKAVASIYRFILSSLHFASIFILLGKPTSSFGFIYLVIMLQFWC,50200
2,GHGSSDGGRPPAKRARKAINCEPCRSSKLKCDRNRPCSSCVLRGTAAQCYPGS,38800
3,GHGTHCSGTVAGKKYGVAKKANVYAVKVLRSNGSGTMSDVVKGVEYAAEQHSE,< 6570
4,GHGTHCSGTVAGKKYGVAKKASVYAVKVLRSNGSGTMSDVVKGVEYAAESHIK,7670
5,GHKAEESVPRKPSRSKSKAREAEWAPDGGEEPVSRKPSRSKAKPKAAEVEKED,23200
6,GHKGRHLAEAAGLALGAKKLMKHRSHSRPGRSPSPEGHHRARHLAEAGIAAAG,43900
7,GHLLVVSISIIIKAMHGCLYCPIFMYVTTYGYYLWIASFIWRAYYLRFQLTLH,43600
8,GHSGNNAHSHLQKPHGHAGKTRSEVGGRSGEGGEGNGGAGGGELGKGVAAGRL,13700
9,GHSGVSVDMHVSFLNSCREGEKVIIKSVIDKKGSRLAFVRVEIKRERDDAIII,49500
10,GHSIPRLNFGDGYNLNNGRAYRGGTWASTLRYRKSNGLWYWIGCVNFWHTWIF,75000
11,GHSTSTFNTYDEVVSRPFISLDMLHLNRGANANTHPSHNAKLESECDSSSHSD,38700
12,GHVRSHNDERPFACGWAGCERAFARQHDCRRHEQRHARDLEREREREFACAGC,38100
13,GHWSYFRNSSMILNFFYKNIIGIGVLFWFQIFCGWSTTYVFAYVYLLFWNVFW,51500
14,GIESAGLEVITAQQLEQYAKDQKVLSNCMERNGITAVLCVGLRYIACLIMIIY,66200
15,GIFCSPFFPFFVPLFCPPFPPPSLFPPLCISLPLSMPNSLLFLFTILYEYAGC,56200
16,GIHETLSFYFVFVCFLYGLRSMALMIGLTGALFLLFMDMLVFGMATAVLIDYG,50700
17,GIISRLVRHAHEMSYITSPLCELAAMLSINWWVKRPFIYFELFGYIRMVLLQS,86400
18,GILFATEGLYTMRFSSWYVRGLFISASIMLFFCYVVARVIIVVVMFTSLRGLP,49900
19,GILPPLLLAIVFGVLPFILRGLAWYECVPRYSLMSISVYRRFYLFLLIHGFLI,51900
20,GILRYCKIWLAWVQIHFGVHFFVLTIWYRMWNLHRLVVQQKLLSGWSYYLPII,36800
